Data reported in patent publication US20060228349A1.

What was measured:
[1] = target: ADDL fibril preparation (Aβ1-42 fibrils); assay: solution equilibrium titration, free IgG by ELISA, GraFit; SE 0.12
[2] = target: Aβ-derived diffusible ligands (synthetic ADDLs), soluble oligomers of amyloid β1-42; assay: solution equilibrium titration, free IgG by ELISA, GraFit; SE 0.042
[3] = target: amyloid beta (1-40) peptide; assay: solution equilibrium titration, free IgG by ELISA, GraFit; SE 0.62
Aβ1-20 peptide = assay: solution equilibrium titration, free IgG by ELISA, GraFit; SE 3.53
Aβ1-20 peptide, sequence (peptide, as listed by the source): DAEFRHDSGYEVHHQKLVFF

## monoclonal antibody WO-2
[1]
  Kd: 1.15 nM
[2]
  Kd: 0.57 nM
[3]
  Kd: 6.15 nM
Aβ1-20 peptide
  Kd: 19.3 nM
